Key:
[1] = PK study, single IV bolus dose in Sprague-Dawley rats; format: in vivo
Procedure: (§1) PK studies. PK studies were conducted in mice, rats, and cynomolgus monkeys.
Pharmacokinetic Assays for MetMAb in Mouse Serum and Rat Serum. […] A direct ELISA assay was developed for quantification of MetMAb in mouse serum and Sprague-Dawley rat serum. Plates were coated with human c-Met-Fc fusion protein to which samples, standards, and dosing solutions were added. Goat anti-human F(Ab′)2 horseradish peroxidase (HRP) was used for detection. Tetrapethyl benzidine (TMB) peroxidase substrate was added for signal development. The substrate reaction was stopped with phosphoric acid. The plates were read at an absorbance of 450 nm. […] The lower limit of quantitation in the assay was 0.47 ng/mL and the upper limit of quantification was 30 ng/mL. The minimum dilution for nude mouse serum samples was 1/10, resulting in a minimum quantifiable concentration of 4.7 ng/mL, with an indefinite upper limit. The minimum dilution for rat serum samples was 1/50, resulting in a minimum quantifiable concentration of 23.5 ng/mL, with an indefinite upper limit.
(§2) Mouse, Rat, and Cynomolgus Monkey PK data analysis. […] PK parameters were estimated using WinNonlin Enterprise Version 5.0.1 (Pharsight Corp., Mountain View, Calif.). The nominal dose administered for each group was used for modeling. Since a single concentration-time profile for mice was determined for each group, one estimate of each PK parameter was obtained and is reported, along with the standard error (SE) of the fit of each PK parameter. For rats and monkeys, PK parameters are reported as mean (+/−SD).
(§3) For IV administrations, a two-compartment elimination model with IV bolus input and first-order elimination was used to describe the observed data (WinNonlin Model 7). Concentrations were weighted using iterative reweighting (1/ŷ^2) and the Nelder-Mead minimization algorithm. The following equation was used to calculate concentration over time in Model 7: […]

[2] = PK study, single IV dose in cynomolgus monkeys; format: in vivo
Procedure: as §1
Pharmacokinetic Assay for MetMAb in Cynomolgus Monkey Serum. A direct ELISA was developed to quantitate MetMAb in cynomolgus monkey serum. Plates were coated with a His-tagged c-met extracellular domain fragment, and diluted samples, standards, and controls were added to the coated plates. F(Ab′)2 fragmented, goat anti-human IgG Fc antibodies conjugated to HRP were added for detection. TMB peroxidase was stopped with […]. The plates were read at an absorbance of 450 nm and 620/630 nm.
The lower limit of quantification of the assay was 1.0 ng/ml and the upper limit of quantification was 32.0 ng/ml. The minimum dilution for neat cynomolgus monkey serum samples was 1/50, resulting in a minimum quantifiable concentration of 50 ng/ml, with an indefinite upper limit.
as §2, §3

c-met [3] = molecular target: c-met (Mus musculus, UniProt P16056); test: Binding to c-met in mice
c-met [4] = molecular target: c-met (Rattus norvegicus, UniProt P97523); test: Binding to c-met in rats
[5] = test system: KP4 human pancreatic ductal cell carcinoma cells; test: Dose response study in KP4 xenograft mice; format: in vivo; details: from Day 21 effect vs. dose profile
Procedure: In a dose response study, female nude (nu/nu) mice (age 6-8 weeks) were inoculated subcutaneously (SC) with 5×10^6 KP4 human pancreatic ductal cell carcinoma cells.
(§4) In all cases, tumors were measured with calipers throughout the study.

[6] = test system: KP4 human pancreatic ductal cell carcinoma cells; test: Dose fractionation study in KP4 xenograft mice; format: in vivo; details: total 2.5, 7.5 or 30 mg/kg as Q1W, Q2W or Q3W
Procedure: For example, a 30 mg/kg total dose was given as 10 mg/kg Q1W, 15 mg/kg Q2W, or 30 mg/kg Q3W.
as §4

[7] = Phase I dose-escalation study: pharmacokinetics; format: in vivo, humans; details: patients
Procedure: (§5) Study design. There are two stages to this study, a dose-escalation stage and an expansion stage.
(§6) Study treatment. […] Dose levels tested in Phase I were: 1 mg/kg, 4 mg/kg, 10 mg/kg, 20 mg/kg, and 30 mg/kg.
MetMAb was administered as an IV infusion. […] The MetMAb infusion was slowed or interrupted for patients experiencing infusion-associated symptoms.
Pharmacokinetics of the study drug were determined by serially monitoring of serum samples for MetMAb throughout the study.

[8] = Phase I dose-escalation study: safety and tolerability; format: in vivo, humans
Procedure: as §5, §6

[9] = test system: locally advanced or metastatic solid tumors; test: Phase I study: anti-tumor activity (RECIST); format: in vivo, humans
Procedure: The following activity outcome measures are assessed: objective response, defined as a complete or partial response confirmed≧4 weeks after initial documentation; duration of objective response; and progression-free survival. Objective response and disease progression will be determined using RECIST.
Patient selection criteria.

Chain of c-met (Mus musculus, UniProt P16056) (P16056 25-1379): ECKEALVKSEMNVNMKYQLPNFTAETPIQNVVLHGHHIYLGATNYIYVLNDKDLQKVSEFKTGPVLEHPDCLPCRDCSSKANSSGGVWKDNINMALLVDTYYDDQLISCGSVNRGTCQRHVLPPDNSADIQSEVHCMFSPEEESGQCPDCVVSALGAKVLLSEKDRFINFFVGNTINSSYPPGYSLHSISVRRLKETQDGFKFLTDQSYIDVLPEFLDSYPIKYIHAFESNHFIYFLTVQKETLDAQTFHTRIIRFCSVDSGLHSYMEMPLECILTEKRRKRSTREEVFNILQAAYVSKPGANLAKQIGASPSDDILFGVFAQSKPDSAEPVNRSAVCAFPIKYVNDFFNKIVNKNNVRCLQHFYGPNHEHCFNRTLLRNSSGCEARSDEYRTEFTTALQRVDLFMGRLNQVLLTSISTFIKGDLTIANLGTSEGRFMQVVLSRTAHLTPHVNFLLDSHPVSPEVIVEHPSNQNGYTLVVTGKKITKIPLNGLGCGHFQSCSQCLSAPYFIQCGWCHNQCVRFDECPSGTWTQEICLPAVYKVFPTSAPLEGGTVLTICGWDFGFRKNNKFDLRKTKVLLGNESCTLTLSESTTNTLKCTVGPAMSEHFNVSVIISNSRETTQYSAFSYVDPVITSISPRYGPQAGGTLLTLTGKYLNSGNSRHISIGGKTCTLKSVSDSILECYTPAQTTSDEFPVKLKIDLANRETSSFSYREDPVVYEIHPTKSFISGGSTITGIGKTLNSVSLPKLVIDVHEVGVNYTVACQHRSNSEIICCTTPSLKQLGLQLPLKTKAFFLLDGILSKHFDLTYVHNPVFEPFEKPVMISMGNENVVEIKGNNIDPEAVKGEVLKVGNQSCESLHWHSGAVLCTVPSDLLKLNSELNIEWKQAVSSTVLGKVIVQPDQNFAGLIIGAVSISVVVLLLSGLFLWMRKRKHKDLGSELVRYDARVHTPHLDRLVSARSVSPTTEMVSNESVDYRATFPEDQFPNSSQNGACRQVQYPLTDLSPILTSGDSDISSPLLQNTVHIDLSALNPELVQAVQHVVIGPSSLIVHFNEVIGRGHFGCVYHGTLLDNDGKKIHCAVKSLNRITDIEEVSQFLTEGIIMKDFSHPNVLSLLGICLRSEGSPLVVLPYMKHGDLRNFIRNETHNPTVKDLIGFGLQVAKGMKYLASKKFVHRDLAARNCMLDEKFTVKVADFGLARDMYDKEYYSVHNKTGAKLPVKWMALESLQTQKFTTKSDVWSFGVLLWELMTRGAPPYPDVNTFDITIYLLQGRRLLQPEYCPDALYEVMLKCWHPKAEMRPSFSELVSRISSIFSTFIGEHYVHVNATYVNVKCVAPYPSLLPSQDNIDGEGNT
Chain of c-met (Rattus norvegicus, UniProt P97523) (P97523 25-1382): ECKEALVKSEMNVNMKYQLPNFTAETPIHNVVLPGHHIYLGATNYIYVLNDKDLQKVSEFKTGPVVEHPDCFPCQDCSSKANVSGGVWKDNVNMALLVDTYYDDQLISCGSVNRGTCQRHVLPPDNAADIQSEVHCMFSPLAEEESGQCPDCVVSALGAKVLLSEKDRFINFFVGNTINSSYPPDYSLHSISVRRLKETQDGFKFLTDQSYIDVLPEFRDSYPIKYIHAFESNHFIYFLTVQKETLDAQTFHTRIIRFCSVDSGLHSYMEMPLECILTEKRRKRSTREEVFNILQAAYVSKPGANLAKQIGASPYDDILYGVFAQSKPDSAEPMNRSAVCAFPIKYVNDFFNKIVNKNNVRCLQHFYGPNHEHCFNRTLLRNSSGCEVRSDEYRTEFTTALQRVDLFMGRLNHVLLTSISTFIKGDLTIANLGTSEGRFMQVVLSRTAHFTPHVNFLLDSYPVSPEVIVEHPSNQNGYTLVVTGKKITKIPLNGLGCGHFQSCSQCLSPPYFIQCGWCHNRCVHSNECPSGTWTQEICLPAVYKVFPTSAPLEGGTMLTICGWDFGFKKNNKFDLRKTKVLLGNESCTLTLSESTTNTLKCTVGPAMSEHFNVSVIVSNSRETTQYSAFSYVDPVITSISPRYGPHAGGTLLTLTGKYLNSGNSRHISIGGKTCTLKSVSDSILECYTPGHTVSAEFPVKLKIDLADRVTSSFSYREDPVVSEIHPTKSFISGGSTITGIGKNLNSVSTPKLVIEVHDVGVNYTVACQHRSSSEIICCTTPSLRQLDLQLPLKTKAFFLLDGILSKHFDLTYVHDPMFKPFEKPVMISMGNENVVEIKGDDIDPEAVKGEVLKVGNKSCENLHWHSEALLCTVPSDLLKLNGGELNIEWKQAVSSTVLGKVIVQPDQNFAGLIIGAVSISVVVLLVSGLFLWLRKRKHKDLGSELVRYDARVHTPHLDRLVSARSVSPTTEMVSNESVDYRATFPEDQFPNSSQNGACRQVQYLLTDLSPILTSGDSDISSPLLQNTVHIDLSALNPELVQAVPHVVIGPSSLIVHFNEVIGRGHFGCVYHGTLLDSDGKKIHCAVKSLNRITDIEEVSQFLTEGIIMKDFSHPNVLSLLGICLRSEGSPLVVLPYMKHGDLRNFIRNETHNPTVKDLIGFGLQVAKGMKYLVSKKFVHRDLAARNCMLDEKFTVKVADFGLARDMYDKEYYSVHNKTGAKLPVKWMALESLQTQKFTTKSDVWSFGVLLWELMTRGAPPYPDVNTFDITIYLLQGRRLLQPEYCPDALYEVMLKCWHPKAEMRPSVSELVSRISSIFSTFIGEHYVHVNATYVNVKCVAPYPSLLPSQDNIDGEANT

Substance: MetMAb: recombinant, humanized, monovalent (one-armed) monoclonal antibody directed against human c-met
- Terminal Half-Life ([1]; Sprague Dawley rat): 5.18 days
- V1 ([1]; Sprague Dawley rat): 44.6 mL/kg
- Vss ([1]; Sprague Dawley rat): 107 mL/kg
- CL ([1]; Sprague Dawley rat (n = 6)): 18.8 mL/day/kg
- Terminal Half-Life ([2]; Cynomolgus monkey): 4.05 days
- V1 ([2]; Cynomolgus monkey): 33.8 mL/kg
- Vss ([2]; Cynomolgus monkey): 70.3 mL/kg
- CL ([2]; Cynomolgus monkey (n = 4), linear dose range): 13.4 mL/day/kg
- Binding to c-met (c-met [3]): does not bind to c-met
- Binding to c-met (c-met [4]): does not bind to c-met
- Median efficacious dose (representative) [5]: 7.5 mg/kg
- Minimal efficacious dose (representative) [5]: 2.5 mg/kg
- Efficacy at the same dose level with different dose regimens [6]: similar
- Inter-individual variability of serum concentrations at each dose level [7]: less than 30%
- Clearance compared to the other dose groups ([7]; 1 mg/kg dose): slightly faster clearance
- Half-life ([7]; IV Q3W): approximately 10 days
- PK linearity ([7]; dose range 4 to 30 mg/kg): linear pharmacokinetics
- Abdominal pain, drug-related, Grade 1 or 2 (patients) ([8]; Total (n = 21)): 0
- Abdominal pain, drug-related, Grade 3 (patients) ([8]; Total (n = 21)): 1 (4.8%)
- Anorexia, drug-related, Grade 1 or 2 (patients) ([8]; Total (n = 21)): 2
- Anorexia, drug-related, Grade 3 (patients) ([8]; Total (n = 21)): 0
- Any adverse event, drug-related, Grade 3 (patients) ([8]; Total (n = 21)): 2 (9.5%)
- Diarrhoea, drug-related, Grade 1 or 2 (patients) ([8]; Total (n = 21)): 1
- Diarrhoea, drug-related, Grade 3 (patients) ([8]; Total (n = 21)): 0
- Dysgeusia, drug-related, Grade 1 or 2 (patients) ([8]; Total (n = 21)): 1
- Dysgeusia, drug-related, Grade 3 (patients) ([8]; Total (n = 21)): 0
- Fatigue, drug-related, Grade 1 or 2 (patients) ([8]; Total (n = 21)): 7
- Fatigue, drug-related, Grade 3 (patients) ([8]; Total (n = 21)): 0
- Flushing, drug-related, Grade 1 or 2 (patients) ([8]; Total (n = 21)): 1
- Flushing, drug-related, Grade 3 (patients) ([8]; Total (n = 21)): 0
- Gastroesophageal reflux disease (GERD), drug-related, Grade 1 or 2 (patients) ([8]; Total (n = 21)): 1
- Gastroesophageal reflux disease (GERD), drug-related, Grade 3 (patients) ([8]; Total (n = 21)): 0
- Hypoalbuminaemia, drug-related, Grade 1 or 2 (patients) ([8]; Total (n = 21)): 2
- Hypoalbuminaemia, drug-related, Grade 3 (patients) ([8]; Total (n = 21)): 0
- Muscle spasms, drug-related, Grade 1 or 2 (patients) ([8]; Total (n = 21)): 1
- Muscle spasms, drug-related, Grade 3 (patients) ([8]; Total (n = 21)): 0
- Mydriasis, drug-related, Grade 1 or 2 (patients) ([8]; Total (n = 21)): 1
- Mydriasis, drug-related, Grade 3 (patients) ([8]; Total (n = 21)): 0
- Nausea, drug-related, Grade 1 or 2 (patients) ([8]; Total (n = 21)): 3
- Nausea, drug-related, Grade 3 (patients) ([8]; Total (n = 21)): 0
- Oedema peripheral, drug-related, Grade 1 or 2 (patients) ([8]; Total (n = 21)): 2
- Oedema peripheral, drug-related, Grade 3 (patients) ([8]; Total (n = 21)): 0
- Oral candidiasis, drug-related, Grade 1 or 2 (patients) ([8]; Total (n = 21)): 1
- Oral candidiasis, drug-related, Grade 3 (patients) ([8]; Total (n = 21)): 0
- Paraesthesia oral, drug-related, Grade 1 or 2 (patients) ([8]; Total (n = 21)): 1
- Paraesthesia oral, drug-related, Grade 3 (patients) ([8]; Total (n = 21)): 0
- Pyrexia, drug-related, Grade 1 or 2 (patients) ([8]; Total (n = 21)): 0
- Rash, drug-related, Grade 1 or 2 (patients) ([8]; Total (n = 21)): 1
- Rash, drug-related, Grade 3 (patients) ([8]; Total (n = 21)): 0
- Swelling face, drug-related, Grade 1 or 2 (patients) ([8]; Total (n = 21)): 1
- Swelling face, drug-related, Grade 3 (patients) ([8]; Total (n = 21)): 0
- Vomiting, drug-related, Grade 1 or 2 (patients) ([8]; Total (n = 21)): 3
- Vomiting, drug-related, Grade 3 (patients) ([8]; Total (n = 21)): 0
- Pyrexia, drug-related, Grade 3 (patients) ([8]; Total (n = 21), Dose Limiting Toxicity (DLT)): 1 (4.8%)
- Dose limiting toxicity (DLT) ([8]; at 4 mg/kg, doses up to 30 mg/kg): A single dose limiting toxicity (DLT) of Grade 3 pyrexia
- Grade 3 toxicity of abdominal pain ([8]; at 20 mg/kg): One
- Most commonly reported adverse event ([8]; dose-escalation): fatigue (Grade 1, 2)
- Drug-related Grade 4 toxicities ([8]; dose-escalation, 1-30 mg/kg): No drug-related Grade 4 toxicities
- Safety and tolerability as a single agent ([8]; doses up to 30 mg/kg, every 3 weeks): safe and generally well tolerated
- Progressive disease (patients) ([9]; 21 patients, dose escalation stage): Three
- Response of patient 11009 ([9]; gastric adenocarcinoma with metastatic liver lesion, CT Jun. 13, 2008, confirmed July 2008): complete response
- Complete, objective response (patients) ([9]; gastric cancer patient, 20 mg/kg cohort): one
